Legend:
[1] = target: 15 L-β33-42 peptide+ruthenium complex-labeled polylysine-bound substance; assay: competitive electrochemiluminescence immunoassay, no competitor: labeled peptide composite bound to bead-bound 21F12
[2] = target: Aβ1-42 synthetic peptide (produced by Peptide Institute, Inc.); assay: electrochemiluminescence double antibody sandwich; 21F12 on magnetic beads, ruthenium-labeled 3D6 detection; Aβ1-42 at 1 pg/mL
[3] = target: Aβ1-42 synthetic peptide (produced by Peptide Institute, Inc.); assay: electrochemiluminescence double antibody sandwich; 21F12 on magnetic beads, ruthenium-labeled 3D6 detection; Aβ1-42 at 5 pg/mL
[4] = target: enzyme degradation product of the Aβ1-42 synthetic peptide (trypsin treated Aβ1-42 synthetic peptide); assay: electrochemiluminescence double antibody sandwich; 21F12 beads, ruthenium-labeled 3D6 detection; trypsin-treated Aβ1-42 sample
[5] = target: 15 L-β33-42 peptide+ruthenium complex-labeled polylysine-bound substance; assay: competitive electrochemiluminescence immunoassay, no competitor: labeled peptide composite (1 µg/ml) bound to bead-bound 21F12
[6] = target: Aβ1-42 synthetic peptide (produced by Peptide Institute, Inc.); assay: electrochemiluminescence double antibody sandwich; 21F12 on magnetic beads, ruthenium-labeled 3D6 detection; Aβ1-42 at 10 pg/mL
[7] = target: Aβ1-42 synthetic peptide (produced by Peptide Institute, Inc.); assay: electrochemiluminescence double antibody sandwich; 21F12 on magnetic beads, ruthenium-labeled 3D6 detection; Aβ1-42 at 25 pg/mL
[8] = target: Aβ1-42 synthetic peptide (produced by Peptide Institute, Inc.); assay: electrochemiluminescence double antibody sandwich; 21F12 on magnetic beads, ruthenium-labeled 3D6 detection; Aβ1-42 at 50 pg/mL
[9] = target: Aβ1-42 synthetic peptide (produced by Peptide Institute, Inc.); assay: competitive electrochemiluminescence immunoassay, no competitor: ruthenium-labeled 21F12 (0.1 µg/ml) bound to bead-bound Aβ1-42
[10] = target: Aβ1-42 synthetic peptide (produced by Peptide Institute, Inc.); assay: electrochemiluminescence double antibody sandwich; 21F12 on magnetic beads, ruthenium-labeled 3D6 detection; Aβ1-42 at 0.5 pg/mL
[11] = target: Aβ1-42 synthetic peptide (produced by Peptide Institute, Inc.); assay: electrochemiluminescence double antibody sandwich; 21F12 on magnetic beads, ruthenium-labeled 3D6 detection; Aβ1-42 at 100 pg/mL
[12] = target: Aβ1-42 synthetic peptide (produced by Peptide Institute, Inc.); assay: electrochemiluminescence double antibody sandwich; 21F12 beads, ruthenium-labeled 3D6 detection; untreated Aβ1-42 control sample
[13] = target: enzyme degradation product of the Aβ1-42 synthetic peptide (trypsin treated Aβ1-42 synthetic peptide); assay: electrochemiluminescence double antibody sandwich; 21F12 beads, ruthenium-labeled 3D6 detection; trypsin-treated Aβ1-42 sample against untreated control

Chain of 15 L-β33-42 peptide+ruthenium complex-labeled polylysine-bound substance (peptide, as listed by the source): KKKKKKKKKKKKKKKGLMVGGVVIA

With “21F12 mouse monoclonal antibody (produced by Innogenetics Inc.)” as the substance, how does the ECL value [1] read?
Its ECL value is 18100.

What about the Difference from the blank (ECL value) [2] of the same substance?
Its Difference from the blank (ECL value) is 1370.

And the ECL value [2]?
The ECL value was 1840.

And the Difference from the blank (ECL value) [3]?
The Difference from the blank (ECL value) was 10300.

And the ECL value [3]?
The ECL value was 10800.

What about the ECL value [4] of the same substance?
The ECL value was 1090.

What about the ECL value [5] of the same substance?
Its ECL value is 17000.

What about the Difference from the blank (ECL value) [6] of the same substance?
Its Difference from the blank (ECL value) is 22400.

What about the ECL value [6] of the same substance?
The ECL value was 22900.

And the Difference from the blank (ECL value) [7]?
Its Difference from the blank (ECL value) is 75300.

What about the ECL value [7] of the same substance?
The ECL value was 75800.

And the Difference from the blank (ECL value) [8]?
The Difference from the blank (ECL value) was 160000.

What about the ECL value [8] of the same substance?
Its ECL value is 160000.

What about the ECL value [9] of the same substance?
The ECL value was 34400.

And the Difference from the blank (ECL value) [10]?
Its Difference from the blank (ECL value) is 614.

What about the ECL value [10] of the same substance?
Its ECL value is 1080.

And the Difference from the blank (ECL value) [11]?
The Difference from the blank (ECL value) was 345000.

And the ECL value [11]?
The ECL value was 345000.

What about the ECL value [12] of the same substance?
Its ECL value is 12800.

And the % (relative ratio of measured value, control sample = 100%) [13]?
Its % (relative ratio of measured value, control sample = 100%) is 9%.

— US20080199879A1
